Experiments:
[1] = molecular target: T1, Recombinant Human IL-1β (human, UniProt P01584 117-269); assay: Biacore SPR
T1 construct: also called IL-1b; IL-1B
Experimental: (§1) The BIACORE assay (Biacore, Inc, Piscataway, N.J.) determines the affinity of antibodies or DVD-Ig with kinetic measurements of on-rate and off-rate constants. Binding of antibodies or DVD-Ig to a target antigen (for example, a purified recombinant target antigen) is determined by surface plasmon resonance-based measurements with a BiacoreR 1000 or 3000 instrument (Biacore® AB, Uppsala, Sweden) using running HBS-EP (10 mM HEPES [pH 7.4], 150 mM NaCl, 3 mM EDTA, and 0.005% surfactant P20) at 25° C. All chemicals are obtained from Biacore® AB (Uppsala, Sweden) or otherwise from a different source as described in the text. For example, approximately 5000 RU of goat anti-mouse IgG, (Fcγ), fragment specific polyclonal antibody (Pierce Biotechnology Inc, Rockford, Ill.) diluted in 10 mM sodium acetate (pH 4.5) is directly immobilized across a CM5 research grade biosensor chip using a standard amine coupling kit according to manufacturer's instructions and procedures at 25 μg/ml. Unreacted moieties on the biosensor surface are blocked with ethanolamine. Modified carboxymethyl dextran surface in flowcell 2 and 4 is used as a reaction surface. Unmodified carboxymethyl dextran without goat anti-mouse IgG in flow cell 1 and 3 is used as the reference surface. For kinetic analysis, rate equations derived from the 1:1 Langmuir binding model are fitted simultaneously to association and dissociation phases of all eight injections (using global fit analysis) with the use of Biaevaluation 4.0.1 software. Purified antibodies or DVD-Ig are diluted in HEPES-buffered saline for capture across goat anti-mouse IgG specific reaction surfaces. Antibodies or DVD-Ig to be captured as a ligand (25 μg/ml) are injected over reaction matrices at a flow rate of 5 μl/min. The association and dissociation rate constants, kₒₙ (M⁻¹s⁻¹) and koff (s⁻¹) are determined under a continuous flow rate of 25 μl/min. Rate constants are derived by making kinetic binding measurements at different antigen concentrations ranging from […]. The equilibrium dissociation constant (M) of the reaction between antibodies or DVD-Igs and the target antigen is then calculated from the kinetic rate constants by the following formula: KD=koff/kₒₙ. Binding is recorded as a function of time and kinetic rate constants are calculated.

[2] = molecular target: T2, Recombinant Human VEGF (human, UniProt P15692-4 27-191); assay: Biacore SPR
T2 construct: also called VEGF165
Experimental: as §1

[3] = molecular target: T1, Recombinant Human IL-1β; assay: direct bind ELISA
Experimental: (§2) Enzyme Linked Immunosorbent Assays to screen for antibodies that bind a desired target antigen were performed as follows. High bind ELISA plates (Corning Costar # 3369, Acton, Mass.) were coated with 100 μL/well of 10 μg/ml of desired target antigen (R&D Systems, Minneapolis, Minn.) or desired target antigen extra-cellular domain/FC fusion protein (R&D Systems, Minneapolis, Minn.) or monoclonal mouse anti-polyhistidine antibody (R&D Systems # MAB050, Minneapolis, Minn.) in phosphate buffered saline (10×PBS, Abbott Bioresearch Center, Media Prep# MPS-073, Worcester, Mass.) overnight at 4° C. Plates were washed four times with PBS containing 0.02% Tween 20. Plates were blocked by the addition of 300 μL/well blocking solution (non-fat dry milk powder, various retail suppliers, diluted to 2% in PBS) for ½ hour at room temperature. Plates were washed four times after blocking with PBS containing 0.02% Tween 20.
(§3) Plates were washed 4 times with PBS containing 0.02% Tween 20.
(§4) One hundred microliters of enhanced TMB solution (Neogen Corp. #308177, K Blue, Lexington, Ky.) was added to each well and incubated for 10 minutes at room temperature. The reaction was stopped by the addition of 50 μL 1N sulphuric acid. Plates were read spectrophotometrically at a wavelength of 450 nm.

[4] = molecular target: T2, Recombinant Human VEGF; assay: direct bind ELISA
Experimental: as §2, §3, §4

[5] = molecular target: T1, Recombinant Human IL-1β; assay: cell-based or functional assay
[6] = molecular target: T3, Recombinant Human Dkk-1 (human, UniProt O94907 32-266); assay: Biacore SPR
T3 construct: also called DKK-1/His
T3 sequence (looked up): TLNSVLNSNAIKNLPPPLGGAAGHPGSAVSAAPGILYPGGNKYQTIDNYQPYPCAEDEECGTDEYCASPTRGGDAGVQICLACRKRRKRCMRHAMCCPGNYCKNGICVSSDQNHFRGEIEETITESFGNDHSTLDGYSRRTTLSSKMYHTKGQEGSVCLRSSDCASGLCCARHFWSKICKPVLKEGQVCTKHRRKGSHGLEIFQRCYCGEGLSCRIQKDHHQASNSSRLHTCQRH
Experimental: as §1

[7] = molecular target: T3, Recombinant Human Dkk-1; assay: direct bind ELISA
Experimental: as §2, §3, §4

[8] = molecular target: T4, CD20 on cells (UniProt P11836 1-297, limits assumed); assay: flow cytometry on cells, 2 µg/mL
T4 construct: whole, on cells
T4 sequence (looked up): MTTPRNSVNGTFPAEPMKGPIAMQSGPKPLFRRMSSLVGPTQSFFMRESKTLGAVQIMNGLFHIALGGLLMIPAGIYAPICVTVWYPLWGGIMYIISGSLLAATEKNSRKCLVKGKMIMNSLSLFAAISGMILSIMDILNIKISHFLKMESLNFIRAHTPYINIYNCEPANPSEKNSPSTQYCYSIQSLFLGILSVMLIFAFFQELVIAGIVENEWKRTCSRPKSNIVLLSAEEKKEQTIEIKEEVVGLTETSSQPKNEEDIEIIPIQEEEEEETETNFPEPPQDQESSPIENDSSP
Experimental: Stable cell lines overexpressing a cell-surface antigen of interest or human tumor cell lines were harvested from tissue culture flasks and resuspended in phosphate buffered saline (PBS) containing 5% fetal bovine serum (PBS/FBS). Prior to staining, human tumor cells were incubated on ice with (100 μl) human IgG at 5 μg/ml in PBS/FCS. 1−5×10⁵ cells were incubated with antibody or DVD-Ig (2 μg/mL) in PBS/FBS for 30-60 minutes on ice. […] After 30 minutes incubation on ice, cells were washed twice and resuspended in PBS/FBS. Fluorescence was measured using a Becton Dickinson FACSCalibur (Becton Dickinson, San Jose, Calif.).
The geometric mean is the n root of the multiplication product of n fluorescent signals (a1×a2×a3 . . . an). With log-transformed data the geometric mean is used to normalize the weighting of the data distribution.

[9] = molecular target: T5, Recombinant Human β-NGF (human, UniProt P01138 122-241); assay: Biacore SPR
Experimental: as §1

[10] = molecular target: T5, Recombinant Human β-NGF; assay: direct bind ELISA
Experimental: as §2, §3, §4

[11] = molecular target: T6, Recombinant Human SOST (human, UniProt Q9BQB4 24-213); assay: Biacore SPR
T6 construct: also called SOST/His; Sclerostin
T6 sequence (looked up): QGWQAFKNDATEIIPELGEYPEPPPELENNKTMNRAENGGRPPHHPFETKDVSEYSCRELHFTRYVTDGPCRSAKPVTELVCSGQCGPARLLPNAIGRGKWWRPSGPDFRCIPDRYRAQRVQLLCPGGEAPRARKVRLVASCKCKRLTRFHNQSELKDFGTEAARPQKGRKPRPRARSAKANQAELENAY
Experimental: as §1

[12] = molecular target: T6, Recombinant Human SOST; assay: direct bind ELISA
Experimental: as §2, §3, §4

[13] = molecular target: T7, Recombinant Human TRANCE/RANKL/TNFSF 11 (human, UniProt O14788 69-317); assay: direct bind ELISA
T7 construct: extracellular domain
T7 sequence (looked up): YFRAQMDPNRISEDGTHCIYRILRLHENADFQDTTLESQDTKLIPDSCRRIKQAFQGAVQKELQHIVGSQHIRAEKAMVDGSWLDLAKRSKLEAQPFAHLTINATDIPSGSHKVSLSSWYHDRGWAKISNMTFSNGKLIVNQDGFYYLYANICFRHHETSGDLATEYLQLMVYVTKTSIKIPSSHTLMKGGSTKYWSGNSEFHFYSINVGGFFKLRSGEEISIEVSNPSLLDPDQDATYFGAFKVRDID
Experimental: as §2, §3, §4

T5 sequence (P01138 122-241 limits assumed): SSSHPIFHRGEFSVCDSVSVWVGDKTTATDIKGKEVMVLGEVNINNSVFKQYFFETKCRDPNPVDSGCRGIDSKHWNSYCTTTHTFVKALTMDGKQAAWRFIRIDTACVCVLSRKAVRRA

B1: DVD124 (bispecific antibody, human IgG1, kappa)
heavy: not shown
light: DIQMTQSPSSLSASVGDRVTITCSASQDISNYLNWYQQKPGKAPKVLIYFTSSLHSGVPSRFSGSGSGTDFTLTISSLQPEDFATYYCQQYSTVPWTFGQGTKVEIKRTVAAPEIVLTQSPDFQSVTPKEKVTITCRASQSIGSSLHWYQQKPDQSPKLLIKYASQSFSGVPSRFSGSGSGTDFTLTINSLEAEDAAAYYCHQSSSLPFTFGPGTKVDIKRTVAAPSVFIFPPSDEQLKSGTASVVCLLNNFYPREAKVQWKVDNALQSGNSQESVTEQDSKDSTYSLSSTLTLSKADYEKHKVYACEVTHQGLSSPVTKSFNRGEC
notes: outer AB014, inner AB032; vectors V1, V2
Kd [1]: 1.41 nM | koff [1]: 9.32e-05 s⁻¹ | kon [1]: 66000 M⁻¹ s⁻¹ | Kd [2]: 0.0467 nM | koff [2]: 4.03e-05 s⁻¹ | kon [2]: 863000 M⁻¹ s⁻¹ | EC50 [3]: 459 nM | EC50 [4]: 3.49 nM | IL-1β Neutralization Assay EC50 (MRC5 cells, hIL-8) [5]: 3.63 nM

B2: AB023 (antibody, human IgG1, kappa, V domains shown)
VH: EVQLVESGGGLVQPANSLKLSCAASGFTFSDYAMAWVRQSPKKGLEWVATIIYDGSSTYYRDSVKGRFTISRDNAKSTLYLQMDSLRSEDTATYYCATGLGIATDYFDYWGQGVLVTVSS
VL: DIRMTQSPASLSASLGETVNIECLASEDIYSDLAWYQQKPGKSPQLLIYNANSLQNGVPSRFSGSGSGTQYSLKINSLQSEDVATYFCQQYNNYPPTFGGGTKLELKR
notes: vectors V1 and V2; also called anti-DKK parent antibody
Kd [6]: < 0.0087 nM | koff [6]: 8.7e-05 s⁻¹ | kon [6]: > 1e+07 M⁻¹ s⁻¹ | EC50 [7]: 6.83 nM

B3: AB001 (antibody, human IgG1, kappa, V domains shown)
VH: QVQLQQPGAELVKPGASVKMSCKASGYTFTSYNMHWVKQTPGRGLEWIGAIYPGNGDTSYNQKFKGKATLTADKSSSTAYMQLSSLTSEDSAVYYCARSTYYGGDWYFNVWGAGTTVTVSA
VL: QIVLSQSPAILSPSPGEKVTMTCRASSSVSYIHWFQQKPGSSPKPWIYATSNLASGVPVRFSGSGSGTSYSLTISRVEAEDAATYYCQQWTSNPPTFGGGTKLEIKR
notes: vectors V1 (wild type hIgG1 constant) and V2 (kappa); also called anti-CD20 parent antibody
FACS Geometric Mean [8]: 1350

B4: AB020 (antibody, human IgG1, kappa, V domains shown)
VH: QVQLQESGPGLVKPSETLSLTCTVSGFSLIGYDLNWIRQPPGKGLEWIGIIWGDGTTDYNSAVKSRVTISKDTSKNQFSLKLSSVTAADTAVYYCARGGYWYATSYYFDYWGQGTLVTVSS
VL: DIQMTQSPSSLSASVGDRVTITCRASQSISNNLNWYQQKPGKAPKLLIYYTSRFHSGVPSRFSGSGSGTDFTFTISSLQPEDIATYYCQQEHTLPYTFGQGTKLEIKR
notes: vectors V1 and V2; also called anti-NGF parent antibody
Kd [9]: < 0.000926 nM | koff [9]: < 1e-06 s⁻¹ | kon [9]: 1.08e+06 M⁻¹ s⁻¹ | EC50 [10]: 9 nM

B5: AB022 (antibody, human IgG1, kappa, V domains shown)
VH: EVQLQQSGPELVTPGASVKISCKASGYTFTDHYMSWVKQSHGKSLEWIGDINPYSGETTYNQKFKGTATLTVDKSSSIAYMEIRGLTSEDSAVYYCARDDYDASPFAYWGQGTLVTVSA
VL: DVQMIQSPSSLSASLGDIVTMTCQASQGTSINLNWFQQKPGKAPKLLIYGSSNLEDGVPSRFSGSRYGTDFTLTISSLEDEDLATYFCLQHSYLPYTFGGGTKLEIKR
notes: vectors V1 and V2
Kd [11]: 0.0379 nM | koff [11]: 2.44e-05 s⁻¹ | kon [11]: 642000 M⁻¹ s⁻¹ | EC50 [12]: 0.66 nM

B6: DVD165 (bispecific antibody, human IgG1, kappa)
heavy: not shown
light: QIVLSQSPAILSPSPGEKVTMTCRASSSVSYIHWFQQKPGSSPKPWIYATSNLASGVPVRFSGSGSGTSYSLTISRVEAEDAATYYCQQWTSNPPTFGGGTKLEIKRTVAAPEIVLTQSPGTLSLSPGERATLSCRASQSVRGRYLAWYQQKPGQAPRLLIYGASSRATGIPDRFSGSGSGTDFTLTISRLEPEDFAVFYCQQYGSSPRTFGQGTKVEIKRTVAAPSVFIFPPSDEQLKSGTASVVCLLNNFYPREAKVQWKVDNALQSGNSQESVTEQDSKDSTYSLSSTLTLSKADYEKHKVYACEVTHQGLSSPVTKSFNRGEC
notes: vectors V1, V2; also called CD-20 and RANKL DVD-Ig
EC50 [13]: 0.32 nM | FACS Geometric Mean [8]: 1890
